Assay results as given in patent US20260275311, “CRISPR NUCLEASE POLYPEPTIDES AND GENE EDITING SYSTEMS COMPRISING SUCH” (ARBOR BIOTECHNOLOGIES, INC., published 2026).
Where a chain is given by its changes, count along the chain named.

How the values were obtained:
[1] = target: T1, Nuclease K D582R/G42R (D582R,G42R); assay: cell_activity; PAM NGG; HEK293T; conditions: tags: N- and C-terminal NLS
T1 chain: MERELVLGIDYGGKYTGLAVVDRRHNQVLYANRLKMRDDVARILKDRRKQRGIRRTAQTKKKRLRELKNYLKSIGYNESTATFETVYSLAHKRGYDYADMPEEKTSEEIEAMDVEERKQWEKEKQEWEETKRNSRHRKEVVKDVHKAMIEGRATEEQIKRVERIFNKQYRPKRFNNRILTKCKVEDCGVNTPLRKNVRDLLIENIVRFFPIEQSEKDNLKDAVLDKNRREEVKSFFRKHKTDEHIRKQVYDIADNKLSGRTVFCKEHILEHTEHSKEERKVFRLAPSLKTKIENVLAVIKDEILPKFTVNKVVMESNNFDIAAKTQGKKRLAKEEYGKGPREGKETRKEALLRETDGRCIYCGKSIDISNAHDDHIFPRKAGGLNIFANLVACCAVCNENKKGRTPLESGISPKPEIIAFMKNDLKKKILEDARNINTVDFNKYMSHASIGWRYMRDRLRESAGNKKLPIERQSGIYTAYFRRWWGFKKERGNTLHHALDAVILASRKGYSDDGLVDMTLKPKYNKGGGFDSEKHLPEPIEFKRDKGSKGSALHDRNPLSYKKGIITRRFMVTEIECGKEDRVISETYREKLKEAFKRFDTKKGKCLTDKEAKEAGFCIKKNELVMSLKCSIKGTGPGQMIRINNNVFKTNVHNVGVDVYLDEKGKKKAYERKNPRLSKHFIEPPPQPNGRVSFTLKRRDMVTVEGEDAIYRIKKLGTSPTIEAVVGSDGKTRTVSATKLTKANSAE
Method: (§1) This Example describes indel assessment on mammalian targets using nuclease variants of Nuclease K comprising two or more substitutions identified as increasing indel activity in Example 8. 71 combination Nuclease K variants were tested.
(§2) Each Nuclease K variant and RNA guide (see Table 19) was cloned as described in Example 8. HEK293T cells were further transfected, followed by NGS analysis, as described in Example 8. For each target, indel ratios, referring to the percentage of NGS reads comprising indels, were calculated for the reference Nuclease K (SEQ ID NO: 65) and for each Nuclease K variant. The indel ratios shown in Table 20 were calculated as the average of two bioreplicates, each of which contained two technical replicates.

[2] = target: T2, Nuclease K D582R/I53R/T734R (D582R,I53R,T734R); assay: cell_activity; PAM NGG; HEK293T; conditions: tags: N- and C-terminal NLS
T2 chain: T1 chain with R42G, I53R, T734R
Method: as §1, §2

[3] = target: T3, Nuclease K; assay: cell_activity; PAM NGG (AGG); HEK293T; row labelled Reference SEQ ID NO: 1, text says Nuclease K; conditions: tags: N-terminal SV40 NLS, C-terminal nucleoplasmin NLS
T3 chain: T1 chain with R42G, R582D

[4] = target: T3, Nuclease K; assay: cell_activity; PAM NGG (GGG); HEK293T; conditions: tags: N-terminal SV40 NLS, C-terminal nucleoplasmin NLS

B1: Nuclease K AAVS1-T3 guide ; AAVS1-T3 target (ssRNA ; dsDNA)
RNA: UUGUGAGAAUGGUGCGUCCUGUUACAGUUAAGGCUCUGAAAAGAGCCUUAAUUGUAAAACGCCUAUACAGUGAAGGGAUAUACGCUUGGGUUUGUCCAGCCUGAGCCUCUAUGCCAGAAAUGGCGCCUUCAUCGUGGGUUAGGACAUUUAAAUUUAAAAACUAUUCAGCACUGUUUGCUCUUGUCAGCUUGGUGGCAGA
DNA 1: TTGTGAGAATGGTGCGTCCT
DNA 2: AGGACGCACCATTCTCACAA
activity [1]: 0.221 indel ratio
activity [2]: 0.27 indel ratio
activity [3]: 0.037 indel ratio

B2: Nuclease K EMX1-T7 guide ; EMX1-T7 target (ssRNA ; dsDNA)
RNA: CUUUAGCAAGGGACUAUUCAGUUACAGUUAAGGCUCUGAAAAGAGCCUUAAUUGUAAAACGCCUAUACAGUGAAGGGAUAUACGCUUGGGUUUGUCCAGCCUGAGCCUCUAUGCCAGAAAUGGCGCCUUCAUCGUGGGUUAGGACAUUUAAAUUUAAAAACUAUUCAGCACUGUUUGCUCUUGUCAGCUUGGUGGCAGA
DNA 1: CTTTAGCAAGGGACTATTCA
DNA 2: TGAATAGTCCCTTGCTAAAG
activity [1]: 0.231 indel ratio
activity [2]: 0.25 indel ratio
activity [4]: 0.011 indel ratio
